“And” between values parts separate entries of the source, which are not always exact repeats. Equal values may be shown once.
Details: whole UniProt chain shown
[1] = Locusta migratoria, pH 3, 20 °C, Thermal, NMR, Unknown
[2] = Ovis aries, pH 7, 25 °C, GdnHCl, CD, HEPES 20 mM, reversible: yes
[3] = Ovis aries, pH 7, 25 °C, GdnHCl, Fluorescence, HEPES 20 mM, reversible: yes
[4] = Rattus norvegicus, pH 7.5, Thermal, Fluorescence, TEA 50 mM, transition: 3
[5] = Locusta migratoria, pH 7, 25 °C, GdnHCl, CD, Sodium phosphate 50 mM, KCl 100 mM, reversible: yes
[6] = Saccharomyces cerevisiae (strain ATCC 204508 / S288c), pH 6, 20 °C, GdnHCl, Fluorescence, Sodium phosphate 0.1 M, reversible: yes
[7] = Saccharomyces cerevisiae (strain ATCC 204508 / S288c), pH 6, Thermal, DSC, Sodium phosphate 0.1 M, KCl 0.05 M, reversible: yes (70-80%)
[8] = Saccharomyces cerevisiae (strain ATCC 204508 / S288c), pH 7.2, 20 °C, GdnHCl, Fluorescence, Sodium phosphate 0.1 M

B1: Protease inhibitors wild type, P80060 (protein)
chain: MKFALALCAAVLLVVLVQAEEKCTPGQVKQQDCNTCTCTPTGVWGCTRKGCQPAKREISCEPGKTFKDKCNTCRCGADGKSAACTLKACPNQ
With B1 the “unfolding enthalpy (van 't Hoff)” value [1] was 19.3 kcal/mol and the unfolding free energy [1] was 1.1 kcal/mol.

B2: Granulocyte-macrophage colony-stimulating factor wild type, P01587 (protein)
chain: MWLQNLLFLGIVVYSLSAPTRSPITVTRPWKHVEAIKEALNLLDDMPVTLNEEVEVVSNEFSFKKLTCVQTRLKIFEQGLRGNFTKLKGALNMTASYYQTYCPPTPETDCETQVTTYADFIDSLKTFLTDIPFECKKPGQK
Work on B2 yielded an unfolding free energy (Mus musculus, pH 9, 4 °C, Urea, CD, Tris-glycine 50 mM, reversible: yes) of 5.78 kcal/mol.

B3: D-amino-acid oxidase wild type, P80324 (protein)
chain: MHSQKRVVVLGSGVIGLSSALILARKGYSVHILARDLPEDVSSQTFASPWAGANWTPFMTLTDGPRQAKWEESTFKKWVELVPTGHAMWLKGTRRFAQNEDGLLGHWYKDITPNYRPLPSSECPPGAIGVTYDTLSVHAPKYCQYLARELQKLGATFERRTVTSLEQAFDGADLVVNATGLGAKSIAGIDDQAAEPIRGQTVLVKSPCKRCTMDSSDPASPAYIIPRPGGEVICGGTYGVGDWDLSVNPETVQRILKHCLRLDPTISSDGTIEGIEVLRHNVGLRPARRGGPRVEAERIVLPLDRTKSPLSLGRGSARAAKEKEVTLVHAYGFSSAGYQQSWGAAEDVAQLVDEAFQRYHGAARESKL
With B3 the Tm (Rhodotorula toruloides, pH 7.5, Thermal, CD, Potassium phosphate 50 mM, reversible: No) was 50.2 °C and 48 °C, the Tm (Rhodotorula toruloides, pH 7.5, Thermal, DSC, Potassium phosphate 50 mM, reversible: No) was 56.9 °C and 55.9 °C and the Tm (Rhodotorula toruloides, pH 7.5, Thermal, Fluorescence, Potassium phosphate 50 mM, NH4SCN 0.5 M, reversible: No) was 39 °C and 39.7 °C.

B4: Pyridoxal kinase wild type, P82197 (protein)
chain: MEEECRVLSIQSHVVRGYVGNRAATFPLQVLGFEVDAVNSVQFSNHTGYSHWKGQVLNSDELQELYDGLKLNHVNQYDYVLTGYTRDKSFLAMVVDIVQELKQQNPRLVYVCDPVMGDQRNGEGAMYVPDDLLPVYREKVVPVADIITPNQFEAELLTGRKIHSQEEALEVMDMLHSMGPDTVVITSSNLLSPRGSDYLMALGSQRTRAPDGSVVTQRIRMEMHKVDAVFVGTGDLFAAMLLAWTHKHPNNLKVACEKTVSAMHHVLQRTIKCAKAKSGEGVKPSPAQLELRMVQSKKDIESPEIVVQATVL
Work on B4 yielded a denaturant m value [2] of 2.41 kcal/mol/M, an unfolding free energy [2] of 1.55 kcal/mol and a denaturant m value [3] of 2.9 kcal/mol/M. The unfolding free energy [3] was 1.5 kcal/mol.

B5: T-cell surface antigen CD2 wild type, P08921 (protein)
chain: MRCKFLGSFFLLFSLSSKGADCRDSGTVWGALGHGINLNIPNFQMTDDIDEVRWERGSTLVAEFKRKMKPFLKSGAFEILANGDLKIKNLTRDDSGTYNVTVYSTNGTRILNKALDLRILEMVSKPMIYWECSNATLTCEVLEGTDVELKLYQGKEHLRSLRQKTMSYQWTNLRAPFKCKAVNRVSQESEMEVVNCPEKGLPLYLIVGVSAGGLLLVFFGALFIFCICKRKKRNRRRKGEELEIKASRMSTVERGPKPHSTQASAPASQNPVASQAPPPPGHHLQTPGHRPLPPSHRNREHQPKKRPPPSGTQVHQQKGPPLPRPRVQPKPPCGSGDVSLPPPN
In the case of B5, the Tm [4] is reported as 24.9 °C, the “heat capacity change of unfolding” value [4] is reported as 0.5 kcal/mol/K and 0.98 kcal/mol/K and the “unfolding enthalpy (van 't Hoff)” value [4] is reported as 14.5 kcal/mol.

B6: Subtilisin Savinase wild type, P29600 (protein)
chain: AQSVPWGISRVQAPAAHNRGLTGSGVKVAVLDTGISTHPDLNIRGGASFVPGEPSTQDGNGHGTHVAGTIAALNNSIGVLGVAPSAELYAVKVLGASGSGSVSSIAQGLEWAGNNGMHVANLSLGSPSPSATLEQAVNSATSRGVLVVAASGNSGAGSISYPARYANAMAVGATDQNNNRASFSQYGAGLDIVAPGVNVQSTYPGSTYASLNGTSMATPHVAGAAALVKQKNPSWSNVQIRNHLKNTATSLGSTNLYGSGLVNAEAATR
In the case of B6, the Tm (Lederbergia lenta, pH 8.8, Thermal, CD, Tris buffer 100 mM, reversible: No) is reported as 77.2 °C and 79.2 °C and the Tm (Lederbergia lenta, pH 9, Thermal, DSC, boric acid 100 mM, CaCl2 2 mM) is reported as 72.7 °C and 75.5 °C.

B7: Apolipophorin-3b wild type, P10762 (protein)
chain: MNTLLAVLMLAVAAQARPDAAGHVNIAEAVQQLNHTIVNAAHELHETLGLPTPDEALNLLTEQANAFKTKIAEVTTSLKQEAEKHQGSVAEQLNRFARNLNNSIHDAATSAQPADQLNSLQSALTNVGHQWQTSQPRPSVAQEAWAPVQSALQEAAEKTKEAAANLQNSIQSAVQKPAN
For B7, the denaturant m value [5] was 3.46 kcal/mol/M and 4.33 kcal/mol/M and the “denaturant midpoint (higher = more stable)” value (“denaturant midpoint” below) [5] was 0.6 M and 0.27 M.

B8: Cyanovirin-N wild type, P81180 (protein)
chain: LGKFSQTCYNSAIQGSVLTSTCERTNGGYNTSSIDLNSVIENVDGSLKWQPSNFIETCRNTQLAGSSELAAECKTRAQQFVSTKINLDDHIANIDGTLKYE
B8 showed a Tm (Nostoc ellipsosporum, pH 6, Thermal, CD, Sodium phosphate 10 mM) of 48.5 °C.

B9: Cytochrome c mitochondrial import factor CYC2 wild type, P38909 (protein)
chain: MLWKNYVLSSSRITRRLHKSPRKSSFSKNFFITGCLLTVGAVSSYLTYRYTSERENKHELSPSYFVKYKISHKRDIDSSHFLLEVTPLFKQKVNIWSLMTAENLWSVEIKQPEVMVVRNYTPLPLKFNPASKEIEILKDGDNADGKLSFYIKKYENGEVARWLHHLPKGHIIEIRGPFIDYEFPHLPNELKRSRDCLYMDNRNERGNNVRENSQFIYQPYDIMMFTAGTGIVTALQLLLTESPFRGTIKLFHTDKNIKQLGPLYPILLRLQASNRVQLKIFETDRQTKQDVLKSIQKSITKPYPYKGLLPFSNVNNKNIMPVLALVCGPESYISSISGRKYDLNQGPVGGLLSKEGWNSDNVYKLS
For B9, the unfolding free energy (Saccharomyces cerevisiae (strain ATCC 204508 / S288c), pH 6, 20 °C, GdnHCl, DSC, Sodium phosphate 0.1 M, reversible: yes) was 4.2 kcal/mol, the denaturant m value [6] was 3.2 kcal/mol/M and the “denaturant midpoint” value [6] was 1.5 M. It also gave an unfolding free energy [6] of 4.9 kcal/mol, an unfolding free energy (Saccharomyces cerevisiae (strain ATCC 204508 / S288c), pH 6, 20 °C, GdnHCl, Fluorescence, Sodium phosphate 0.1 M) of 3.8 kcal/mol and a Tm [7] of 79.4 °C. The “unfolding enthalpy (calorimetric)” value [7] was 113 kcal/mol, the “unfolding enthalpy (van 't Hoff)” value [7] was 140 kcal/mol and the “denaturant midpoint” value [8] was 1.49 M. The unfolding free energy [8] was 3.8 kcal/mol.
